T1: recombinant proclotting enzyme of Japanese horseshoe crab (His-tag free)
T1 chain: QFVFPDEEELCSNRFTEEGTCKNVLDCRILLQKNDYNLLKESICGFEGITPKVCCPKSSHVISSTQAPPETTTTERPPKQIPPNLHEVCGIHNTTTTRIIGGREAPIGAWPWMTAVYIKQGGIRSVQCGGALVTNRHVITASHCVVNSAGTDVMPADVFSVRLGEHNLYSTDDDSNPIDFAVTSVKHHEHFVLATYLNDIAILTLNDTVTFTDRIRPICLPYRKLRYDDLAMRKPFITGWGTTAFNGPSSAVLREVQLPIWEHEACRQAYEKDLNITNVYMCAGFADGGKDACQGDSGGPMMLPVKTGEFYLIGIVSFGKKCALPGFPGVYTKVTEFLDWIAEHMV

B1: His-tag-free recombinant factor C of Japanese horseshoe crab Tachypleus tridentatus (protein)
chain: RGVDLGLCDETRFECKCGDPGYVFNVPMKQCTYFYRWRPYCKPCDDLEAKDICPKYKRCQECKAGLDSCVTCPPNKYGTWCSGECQCKNGGICDQRTGACTCRDRYEGAHCEILKGCPLLPSDSQVQEVRNPPDNPQTIDYSCSPGFKLKGVARISCLPNGQWSSFPPKCIRECAKVSSPEHGKVNAPSGNMIEGATLRFSCDSPYYLIGQETLTCQGNGQWSGQIPQCKKLVFCPDLDPVNHAEHQVKIGVEQKYGQFPQGTEVTYTCSGNYFLMGFNTLKCNPDGSWSGSQPSCVKVADREVDCDSKAVDFLDDVGEPVRIHCPAGCSLTAGTVWGTAIYHELSSVCRAAIHAGKLPNSGGAVHVVNNGPYSDFLGSDLNGIKSEELKSLARSFRFDYVSSSTAGRSGCPDGWFEVEENCVYVTSKQRAWERAQGVCTNMAARLAVLDKDLIPSSLTETLRGKGLTTTWIGLHRLDAEKPFVWELMDRSNVVLNDNLTFWASGEPGNETNCVYLDIRDQLQPVWKTKSCFQPSSFACMMDLSDRNKAKCDDPGPLENGHATLHGQSIDGFYAGSSIRYSCEVLHYLSGTETVTCTTNGTWSAPKPRCIKVITCQNPPVPSYGSVEIKPPSRTNSISRVGSPFLRLPRLPLPLARAAKPPPKPRSSQPSTVDLASKVKLPEGHYRVGSRAIYTCESRYYELLGSQGRRCDSNGNWSGRPASCIPVCGRSDSPRSPFIWNGNSTEIGQWPWQAGISRWLADHNMWFLQCGGSLLNEKWIVTAAHCVTYSATAEIIDPSQFKIYLGKYYRDDSRDDDYVQVREALEIHVNPNYDPGNLNFDIALIQLKTPVTLTTRVQPICLPTDITTREHLKEGTLAVVTGWGLNENNTYSEMIQQAVLPVVAASTCEEGYKEADLPLTVTENMFCAGYKKGRYDACSGDSGGPLVFADDSRTERRWVLEGIVSWGSPSGCGKANQYGGFTKVNVFLSWIRQFI
B2: His-tag-attached factor C (factor C of Japanese horseshoe crab of SEQ ID NO:2 with a 6xHis-tag at the C-terminus) (protein)
chain: RGVDLGLCDETRFECKCGDPGYVFNVPMKQCTYFYRWRPYCKPCDDLEAKDICPKYKRCQECKAGLDSCVTCPPNKYGTWCSGECQCKNGGICDQRTGACTCRDRYEGAHCEILKGCPLLPSDSQVQEVRNPPDNPQTIDYSCSPGFKLKGVARISCLPNGQWSSFPPKCIRECAKVSSPEHGKVNAPSGNMIEGATLRFSCDSPYYLIGQETLTCQGNGQWSGQIPQCKKLVFCPDLDPVNHAEHQVKIGVEQKYGQFPQGTEVTYTCSGNYFLMGFNTLKCNPDGSWSGSQPSCVKVADREVDCDSKAVDFLDDVGEPVRIHCPAGCSLTAGTVWGTAIYHELSSVCRAAIHAGKLPNSGGAVHVVNNGPYSDFLGSDLNGIKSEELKSLARSFRFDYVSSSTAGRSGCPDGWFEVEENCVYVTSKQRAWERAQGVCTNMAARLAVLDKDLIPSSLTETLRGKGLTTTWIGLHRLDAEKPFVWELMDRSNVVLNDNLTFWASGEPGNETNCVYLDIRDQLQPVWKTKSCFQPSSFACMMDLSDRNKAKCDDPGPLENGHATLHGQSIDGFYAGSSIRYSCEVLHYLSGTETVTCTTNGTWSAPKPRCIKVITCQNPPVPSYGSVEIKPPSRTNSISRVGSPFLRLPRLPLPLARAAKPPPKPRSSQPSTVDLASKVKLPEGHYRVGSRAIYTCESRYYELLGSQGRRCDSNGNWSGRPASCIPVCGRSDSPRSPFIWNGNSTEIGQWPWQAGISRWLADHNMWFLQCGGSLLNEKWIVTAAHCVTYSATAEIIDPSQFKIYLGKYYRDDSRDDDYVQVREALEIHVNPNYDPGNLNFDIALIQLKTPVTLTTRVQPICLPTDITTREHLKEGTLAVVTGWGLNENNTYSEMIQQAVLPVVAASTCEEGYKEADLPLTVTENMFCAGYKKGRYDACSGDSGGPLVFADDSRTERRWVLEGIVSWGSPSGCGKANQYGGFTKVNVFLSWIRQFIHHHHHH

Target: T1, recombinant proclotting enzyme of …

Protein | rate of increase in the absorbance at 405 nm (absorbance change rate), proclotting enzyme-activating capacity
B1 | the His-tag-free factor C showed a remarkable proclotting enzyme-activating capacity irrespective of whether it was obtained by the viral method or by the stably expressing cell line method
B2 | activation of the proclotting enzyme was not observed or hardly observed in the His-tag-attached factor C solution containing the equal amount of factor C (0.7 µL), and even in the solution containing about 7 times the amount of factor C (5 µL)
